From IntAct's records for PubMed 36931259

B1: 14-3-3 protein sigma (Homo sapiens), P31947 (parent)
chain: MERASLIQKAKLAEQAERYEDMAAFMKGAVEKGEELSCEERNLLSVAYKNVVGGQRAAWRVLSSIEQKSNEEGSEEKGPEVREYREKVETELQGVCDTVLGLLDSHLIKEAGDAESRVFYLKMKGDYYRYLAEVATGDDKKRIIDSARSAYQEAMDISKKEMPPTNPIRLGLALNFSVFHYEIANSPEEAISLAKTTFDEAMADLHTLSEDSYKDSTLIMQLLRDNLTLWTADNAGEEGGEAPQEPQS
partner: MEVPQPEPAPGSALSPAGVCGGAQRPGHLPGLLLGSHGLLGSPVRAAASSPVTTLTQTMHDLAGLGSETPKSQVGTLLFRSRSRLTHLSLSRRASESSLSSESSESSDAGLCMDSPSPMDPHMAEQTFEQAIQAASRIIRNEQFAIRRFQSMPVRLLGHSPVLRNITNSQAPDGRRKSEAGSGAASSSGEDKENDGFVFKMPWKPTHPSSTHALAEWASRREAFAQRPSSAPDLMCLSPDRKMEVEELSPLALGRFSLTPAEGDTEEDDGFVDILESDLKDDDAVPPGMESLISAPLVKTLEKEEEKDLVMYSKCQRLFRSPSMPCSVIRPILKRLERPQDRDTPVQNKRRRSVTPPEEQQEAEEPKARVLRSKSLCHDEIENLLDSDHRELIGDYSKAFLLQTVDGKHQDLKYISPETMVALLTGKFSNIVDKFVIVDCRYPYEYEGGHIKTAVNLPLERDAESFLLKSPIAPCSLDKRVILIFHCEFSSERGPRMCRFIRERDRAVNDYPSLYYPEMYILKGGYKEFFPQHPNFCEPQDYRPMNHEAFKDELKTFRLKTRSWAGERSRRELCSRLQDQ
B2: 14-3-3 protein sigma (Homo sapiens), P31947 (parent)
chain: B1 chain
partner: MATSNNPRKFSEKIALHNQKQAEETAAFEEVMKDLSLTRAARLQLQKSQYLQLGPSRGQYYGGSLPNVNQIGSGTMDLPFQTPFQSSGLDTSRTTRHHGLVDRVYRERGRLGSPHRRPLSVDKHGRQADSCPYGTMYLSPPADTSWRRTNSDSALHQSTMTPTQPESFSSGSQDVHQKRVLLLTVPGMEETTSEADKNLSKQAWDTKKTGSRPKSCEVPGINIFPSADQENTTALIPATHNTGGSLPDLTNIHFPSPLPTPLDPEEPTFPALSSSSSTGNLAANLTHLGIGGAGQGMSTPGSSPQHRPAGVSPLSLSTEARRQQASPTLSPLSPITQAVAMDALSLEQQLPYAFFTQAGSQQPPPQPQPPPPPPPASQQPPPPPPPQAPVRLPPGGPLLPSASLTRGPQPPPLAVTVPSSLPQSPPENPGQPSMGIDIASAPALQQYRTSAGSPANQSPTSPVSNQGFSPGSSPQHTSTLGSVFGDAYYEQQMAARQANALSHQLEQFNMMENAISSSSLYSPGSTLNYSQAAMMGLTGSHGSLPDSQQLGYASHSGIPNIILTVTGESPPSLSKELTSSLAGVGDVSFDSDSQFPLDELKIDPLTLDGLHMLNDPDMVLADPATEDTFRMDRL
B3: 14-3-3 protein sigma (Homo sapiens), P31947 (parent)
chain: B1 chain
partner: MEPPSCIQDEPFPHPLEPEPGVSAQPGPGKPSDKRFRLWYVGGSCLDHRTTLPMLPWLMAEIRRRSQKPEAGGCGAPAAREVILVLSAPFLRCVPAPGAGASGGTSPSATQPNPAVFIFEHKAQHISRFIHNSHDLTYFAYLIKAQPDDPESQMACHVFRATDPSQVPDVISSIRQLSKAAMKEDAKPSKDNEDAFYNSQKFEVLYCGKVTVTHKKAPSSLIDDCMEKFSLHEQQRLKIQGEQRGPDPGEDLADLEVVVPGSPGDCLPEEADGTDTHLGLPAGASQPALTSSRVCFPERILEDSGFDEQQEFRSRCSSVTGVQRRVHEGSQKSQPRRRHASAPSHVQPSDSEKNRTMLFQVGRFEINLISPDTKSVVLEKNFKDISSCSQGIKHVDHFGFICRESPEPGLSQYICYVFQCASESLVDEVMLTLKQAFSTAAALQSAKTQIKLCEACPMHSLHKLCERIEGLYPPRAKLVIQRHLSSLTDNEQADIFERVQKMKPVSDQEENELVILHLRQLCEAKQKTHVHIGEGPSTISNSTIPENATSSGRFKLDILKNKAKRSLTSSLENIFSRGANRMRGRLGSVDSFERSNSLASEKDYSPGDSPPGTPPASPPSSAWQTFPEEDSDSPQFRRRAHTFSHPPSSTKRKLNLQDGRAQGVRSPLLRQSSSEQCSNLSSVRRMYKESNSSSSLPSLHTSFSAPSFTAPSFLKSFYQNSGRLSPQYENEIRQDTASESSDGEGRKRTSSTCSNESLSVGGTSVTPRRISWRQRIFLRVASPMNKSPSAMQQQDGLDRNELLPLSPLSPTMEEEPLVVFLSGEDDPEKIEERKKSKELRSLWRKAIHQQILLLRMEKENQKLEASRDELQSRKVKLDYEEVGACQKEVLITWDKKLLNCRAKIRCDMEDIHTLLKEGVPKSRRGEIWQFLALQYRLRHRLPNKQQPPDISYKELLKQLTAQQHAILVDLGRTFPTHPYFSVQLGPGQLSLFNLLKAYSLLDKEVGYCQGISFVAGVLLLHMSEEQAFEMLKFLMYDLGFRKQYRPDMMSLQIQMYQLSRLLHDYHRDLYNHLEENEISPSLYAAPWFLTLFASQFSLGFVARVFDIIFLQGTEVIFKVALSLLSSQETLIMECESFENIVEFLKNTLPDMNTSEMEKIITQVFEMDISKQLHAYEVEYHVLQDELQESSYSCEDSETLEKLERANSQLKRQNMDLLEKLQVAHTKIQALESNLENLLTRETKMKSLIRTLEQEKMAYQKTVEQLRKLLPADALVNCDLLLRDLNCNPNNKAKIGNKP
B4: 14-3-3 protein sigma (Homo sapiens), P31947 (parent)
chain: B1 chain
partner: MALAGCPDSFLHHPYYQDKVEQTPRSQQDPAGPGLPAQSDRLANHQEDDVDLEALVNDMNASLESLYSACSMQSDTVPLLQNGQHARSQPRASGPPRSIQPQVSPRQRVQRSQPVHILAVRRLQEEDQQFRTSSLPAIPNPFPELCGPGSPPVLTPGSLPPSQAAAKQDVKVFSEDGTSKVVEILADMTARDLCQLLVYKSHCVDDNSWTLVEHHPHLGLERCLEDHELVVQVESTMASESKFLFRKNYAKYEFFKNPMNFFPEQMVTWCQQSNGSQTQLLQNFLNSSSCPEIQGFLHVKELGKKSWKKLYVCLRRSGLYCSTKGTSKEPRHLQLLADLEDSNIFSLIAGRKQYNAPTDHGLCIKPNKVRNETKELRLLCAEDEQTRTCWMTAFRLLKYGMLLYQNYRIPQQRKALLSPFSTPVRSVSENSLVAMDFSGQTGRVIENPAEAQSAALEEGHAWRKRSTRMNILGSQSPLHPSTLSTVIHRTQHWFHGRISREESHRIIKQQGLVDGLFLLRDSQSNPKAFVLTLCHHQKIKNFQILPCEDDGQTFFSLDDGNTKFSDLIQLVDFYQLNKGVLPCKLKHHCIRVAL
B5: 14-3-3 protein sigma (Homo sapiens), P31947 (parent)
chain: B1 chain
partner: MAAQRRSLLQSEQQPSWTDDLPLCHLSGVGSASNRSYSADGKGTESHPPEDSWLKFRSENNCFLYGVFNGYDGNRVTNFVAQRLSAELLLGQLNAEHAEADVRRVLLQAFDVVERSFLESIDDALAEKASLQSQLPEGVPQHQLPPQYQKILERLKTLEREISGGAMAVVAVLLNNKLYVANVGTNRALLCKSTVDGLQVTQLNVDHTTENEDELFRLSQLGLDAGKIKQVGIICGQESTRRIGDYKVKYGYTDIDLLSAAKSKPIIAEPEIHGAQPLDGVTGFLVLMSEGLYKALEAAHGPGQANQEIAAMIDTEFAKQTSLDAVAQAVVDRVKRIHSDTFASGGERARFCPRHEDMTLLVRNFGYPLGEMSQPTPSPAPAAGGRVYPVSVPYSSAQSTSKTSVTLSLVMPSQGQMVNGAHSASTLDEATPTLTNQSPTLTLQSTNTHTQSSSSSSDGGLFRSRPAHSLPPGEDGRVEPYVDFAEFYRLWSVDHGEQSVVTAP

Variants of: B1
Conditions: with mpip2_human CDC25B

Q: With K49E;R56E;V178D as the variant, how does the “effect of a mutation on the interaction” value read?
A: The value was “decreasing interaction strength”.

Variants of: B2
Conditions: with crtc1_human CRTC1, Q6UUV9

Q: How did the “effect of a mutation on the interaction” value turn out when K49E;R56E;V178D was run?
A: The value was “decreasing interaction strength”.

Variants of: B3
Conditions: with tbcd4_human TBC1D4, O60343

Q: K49E;R56E;V178D was tested. Which “effect of a mutation on the interaction” value did it give?
A: Its value is “decreasing interaction strength”.

Variants of: B4
Conditions: with grb10_human GRB10, Q13322

Q: For K49E;R56E;V178D, which “effect of a mutation on the interaction” value is on record?
A: The value was “decreasing interaction strength”.

Variants of: B5
Conditions: with tab1_human TAB1, Q15750

Q: Which “effect of a mutation on the interaction” value does the source give for K49E;R56E;V178D here?
A: Its value is “decreasing interaction strength”.
